Laboratory results reported in publication PMC7041945, “Misfolded proteins bind and activate death receptor 5 to trigger apoptosis during unresolved endoplasmic reticulum stress” (eLife, 2020).
No end group written: not given here.

Experiments:
Conditions in all cases: both partners purified
[1] = target: T1, Fc-tagged DR5 ectodomain (long isoform) (human, UniProt O14763 56-210); test: peptide or protein array; 18-residue peptides tiled on the array; 500 nM Fc-tagged DR5 ECD in 50 mM HEPES pH 7.2, 250 mM NaCl, 10% glycerol, 1 hr at room temperature; detected with anti-Fc
T1 construct: DR5 extracellular domain, long isoform; 55 kDa on SDS-PAGE by the legend; also called Fc-tagged DR5 ECD; Fc-tagged DR5L ECD; source: recombinant, generated and purified at Genentech Inc

[2] = target: T1, Fc-tagged DR5 ectodomain (long isoform); test: pull-down; Fc-tagged ECD held on Dynabeads Protein G, incubated with peptide in 20 mM HEPES pH 7.2, 100 mM KOAc, 0.2% Tween-20, 1 hr at RT; Coomassie-stained SDS-PAGE
[3] = target: T2, FLAG-tagged DR5 long isoform ECD (human); test: SEC; 25 μM recombinant DR5L ECD alone or pre-incubated overnight at 4°C with 100 or 400 μM fluorescein-conjugated peptide or 25 μM TRAIL; SuperDex200 10/300 GL, 30 mM HEPES pH 7.2, 150 mM NaCl; fractions on SDS-PAGE, fluorescence scan and Coomassie
T2 construct: human DR5 ECD, long isoform, residues 72-213; Dimer without peptide by cross-linking; multimers with peptide; also called FLAG-tagged DR5L ECD; recombinant DR5L ECD; source: SF21 (baculovirus), secreted, purified (HisTrapFF, SuperDex200); not shown: FLAG, C-terminal, kept
T2 sequence (chain, as listed by the source): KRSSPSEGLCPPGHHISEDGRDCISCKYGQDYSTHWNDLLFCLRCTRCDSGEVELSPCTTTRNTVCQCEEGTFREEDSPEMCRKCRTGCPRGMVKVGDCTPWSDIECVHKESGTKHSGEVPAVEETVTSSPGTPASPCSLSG

B1: MPZ-ecto peptide (peptide)
peptide: FTWRYQPEGGRDAISIFHYA
notes: stretch of the ectodomain of human myelin protein zero; The array spots are 18-residue peptides; also called spots C18-C19 of the peptide array; source: synthetic peptide, GenScript (>95% purity); as spots C18-C19 on the peptide array of the MIT Biopolymers Laboratory
B1: binds [1].

B2: MPZ-ecto^VD peptide (peptide)
peptide: VSDDISFTWRYQPEGGRD
notes: stretch of the ectodomain of human myelin protein zero; source: synthetic peptide, GenScript (>95% purity)
B2: binds [2].

B3: fluorescein-conjugated MPZ-ecto peptide (peptide)
peptide: FTWRYQPEGGRDAISIFHYA
modifications: also: fluorescein-conjugated, site not given here
notes: stretch of the ectodomain of human myelin protein zero; also called fluorescein-labeled MPZ-ecto peptide; source: synthetic peptide
B3: binds [3].
